Experimental findings from the RNAGym collection of RNA variant scans (doi:10.7554/elife.80360) are described below.

The labels stand for the following.
B1: HDV Ribozyme (parent)
chain: GGCCGGCAUGGUCCCAGCCUCCUCGCUGGCGCCGGCUGGGCAACAUUCCGAGGGGACCGUCCCCUCGGUAAUGGCGAAUGGGACCCA

Variants of B1 are the subject of the series. The series can be described thus: self-cleavage, relative activity (ratio to wild type); higher = more cleavage; co-transcriptional.
For the variant C63A A71C, the self-cleavage stood at 0.525.

Regarding U47A C62G, the self-cleavage turned out to be 0.54.

With G1A U72G, the self-cleavage was found to be 0.0665.

Consider U9G U12C, for which the self-cleavage was determined as 0.923.

In the case of C13A A78U, the self-cleavage stood at 0.0449.

U9C C41A: the self-cleavage worked out at 1.19.

U9A C26U: the self-cleavage worked out at 1.12.

For the variant G5A G25A, the self-cleavage came out at 0.

Turning to G1U C22G, the self-cleavage stood at 0.214.

C4G U47G: the self-cleavage was found to be 0.175.

Turning to C32U G52U, the self-cleavage came out at 0.963.

Consider A42C C84G, for which the self-cleavage came to 0.

For C3G G80A, the self-cleavage was 0.0911.

Regarding G28A C75A, the self-cleavage was 0.121.

In the case of G55A C86U, the self-cleavage came out at 0.989.

Regarding U12A U23G, the self-cleavage amounted to 0.0791.

For U23A G25U, the self-cleavage amounted to 0.104.

For the variant U65A C86G, the self-cleavage was 1.12.

Take G40U G52C: the self-cleavage was found to be 0.891.

In the case of G11C G74A, the self-cleavage was found to be 0.117.

As to U9A C85G, the self-cleavage came out at 1.13.

C62A C66U: the self-cleavage is 0.597.

With C21G C85U, the self-cleavage came out at 0.

Take C4U G39A: the self-cleavage was found to be 0.136.

Turning to A77C C86G, the self-cleavage stood at 0.302.

As for G2A C63G, the self-cleavage is 0.0804.

Turning to U27A U60G, the self-cleavage was 0.59.

Take C3G G29A: the self-cleavage stood at 0.106.

Turning to C15U C66A, the self-cleavage worked out at 1.11.

For A42G G53U, the self-cleavage was determined as 0.817.

A8C A83G: the self-cleavage worked out at 0.646.

Turning to C26A C63G, the self-cleavage amounted to 0.853.

For G50A G81C, the self-cleavage came out at 0.225.

With U65G A70C, the self-cleavage worked out at 0.601.

With G1A A87U, the self-cleavage was found to be 0.157.

In the case of C26A G53C, the self-cleavage was found to be 0.759.

As to C14A G53C, the self-cleavage is 0.665.

On to C3A G31A, for which the self-cleavage worked out at 0.0507.

Consider G40C U65C, for which the self-cleavage was determined as 0.155.

Take U9G A56G: the self-cleavage was determined as 0.895.

As for C4G G81A, the self-cleavage was 0.0382.

Turning to C13U U60A, the self-cleavage amounted to 0.554.

C19A C21U: the self-cleavage was 0.134.

As to G2A C36A, the self-cleavage came out at 0.228.

Turning to C3G G73C, the self-cleavage amounted to 0.272.

With G1A U9A, the self-cleavage came to 0.138.

Turning to A51G A78U, the self-cleavage is 0.156.

For the variant C7U G10C, the self-cleavage is 0.266.

For C15U C26U, the self-cleavage came out at 1.2.

As for U37A G82A, the self-cleavage turned out to be 0.138.

As for C63A A83C, the self-cleavage turned out to be 0.271.

Turning to G10C G68U, the self-cleavage worked out at 0.778.

For the variant U20G A70U, the self-cleavage came to 0.196.

For the variant C4A G81C, the self-cleavage worked out at 0.

For C4A C64A, the self-cleavage stood at 0.157.

Consider C7A C26A, for which the self-cleavage was found to be 0.615.

As to A70G C86U, the self-cleavage is 1.23.

Turning to G2A U60C, the self-cleavage amounted to 0.354.

Turning to U12G A42C, the self-cleavage stood at 0.217.

C24U C58A: the self-cleavage is 0.789.

On to C32U G39U, for which the self-cleavage worked out at 0.486.

As for C3A U20C, the self-cleavage is 0.108.

Regarding G5C A56G, the self-cleavage amounted to 0.237.

Take C19G G28C: the self-cleavage was found to be 0.912.

As for G10C C18A, the self-cleavage was found to be 0.0906.

As for A45G G82U, the self-cleavage was 0.475.

For G53C G68C, the self-cleavage turned out to be 0.372.

As for C58A U65G, the self-cleavage stood at 1.05.

Take G5U G34A: the self-cleavage came out at 0.0875.

U65A A77U: the self-cleavage stood at 0.72.

Turning to G40C C84A, the self-cleavage was 0.0831.

As to U60A G74A, the self-cleavage worked out at 0.422.

Take C61U A70U: the self-cleavage was found to be 1.02.

Turning to C24U G28C, the self-cleavage worked out at 0.0475.

In the case of A43C C84A, the self-cleavage amounted to 0.332.

For C66A A87U, the self-cleavage was 0.994.

As to U9G C22U, the self-cleavage came to 0.44.

U12G C63A: the self-cleavage was determined as 0.712.

Turning to G53C G55C, the self-cleavage is 1.05.

A45C U72A: the self-cleavage stood at 0.89.

As to C30U A56U, the self-cleavage was determined as 0.782.

In the case of U47C C48A, the self-cleavage amounted to 0.875.

Consider G53C C75A, for which the self-cleavage was found to be 0.175.

On to C64U A77C, for which the self-cleavage amounted to 0.318.

C19G C36A: the self-cleavage was 0.0277.

On to G5U G50U, for which the self-cleavage amounted to 0.795.

For the variant G6A C19U, the self-cleavage worked out at 0.0875.

Consider C36A G68A, for which the self-cleavage was determined as 0.293.

On to U46C A83G, for which the self-cleavage is 0.402.

Turning to C32G C33U, the self-cleavage turned out to be 0.115.

Consider C4U C66A, for which the self-cleavage is 0.755.

As to G50C A87C, the self-cleavage was 0.95.

As for G31A C85G, the self-cleavage is 0.367.

For A56C A70C, the self-cleavage turned out to be 1.12.

As for G11U C44A, the self-cleavage was found to be 0.256.

Turning to C49U C64G, the self-cleavage was found to be 0.684.

Turning to C7G U46G, the self-cleavage turned out to be 0.

With U20G U65G, the self-cleavage is 0.437.

For the variant U23A C26A, the self-cleavage was found to be 1.23.

Consider C30U G35A, for which the self-cleavage came out at 0.136.

As for C57G C84G, the self-cleavage is 0.831.

Take G31A G68A: the self-cleavage is 0.481.

U9A U46C: the self-cleavage is 0.831.

A42U C85A: the self-cleavage stood at 0.415.

G17A C48A: the self-cleavage turned out to be 0.506.

As for C48U G55A, the self-cleavage is 0.75.

For G52U U65C, the self-cleavage stood at 0.658.

A51G A83C: the self-cleavage came out at 0.199.

As to C24U A77G, the self-cleavage came to 0.53.

G1U C14G: the self-cleavage is 0.397.

Regarding C15A C33U, the self-cleavage is 0.427.

Turning to G6U C26U, the self-cleavage turned out to be 0.892.

In the case of G5A G34C, the self-cleavage was found to be 0.101.

G25U G53A: the self-cleavage amounted to 0.19.

Regarding G52A U60G, the self-cleavage was found to be 0.897.

For the variant U9G G53A, the self-cleavage stood at 1.03.

A45U U79G: the self-cleavage was 0.506.

For C32U C64G, the self-cleavage was determined as 0.875.

Take C24A G28C: the self-cleavage turned out to be 0.0773.

As to G25C A70G, the self-cleavage was 0.0573.

As for U60C G73U, the self-cleavage is 0.352.

As for C4U C48U, the self-cleavage worked out at 0.931.

As for G53U G82C, the self-cleavage is 0.381.

Take U27A G34C: the self-cleavage stood at 0.0978.

For G2A G52A, the self-cleavage stood at 0.143.

For C18U C36A, the self-cleavage came to 0.0739.

On to C18A C24U, for which the self-cleavage was 0.104.

As for C30G G76A, the self-cleavage came to 0.0554.

Consider C3A U60G, for which the self-cleavage amounted to 0.471.

Turning to C21U U23C, the self-cleavage turned out to be 0.175.

Turning to C15G A45U, the self-cleavage came out at 0.594.

In the case of G39U C66A, the self-cleavage stood at 0.739.

Regarding A43G U72A, the self-cleavage worked out at 0.453.

With C58A C86U, the self-cleavage was determined as 1.1.

G11U A43U: the self-cleavage stood at 0.0893.

For C26A A42U, the self-cleavage is 0.525.

For the variant U65A G81C, the self-cleavage amounted to 0.502.

Regarding A45G G74C, the self-cleavage came to 0.332.

As to C44G U65G, the self-cleavage turned out to be 0.688.

On to A45C A70G, for which the self-cleavage was 0.655.

As for U12A A83U, the self-cleavage turned out to be 0.674.

Consider C22A C32G, for which the self-cleavage was determined as 0.0437.

Turning to C3G C36G, the self-cleavage is 0.0343.

As for C22U G80U, the self-cleavage is 0.11.

Consider C48U G80C, for which the self-cleavage is 0.243.

Turning to G6A C61G, the self-cleavage was 0.712.

Consider A8G C18A, for which the self-cleavage stood at 0.0875.

For G1U C84G, the self-cleavage was found to be 0.297.

As for C30G A70U, the self-cleavage was 0.0468.

Regarding C24U G35A, the self-cleavage stood at 0.372.

For G1C C49A, the self-cleavage came out at 0.237.

For A45G U69C, the self-cleavage was 0.72.

For C7G A71C, the self-cleavage is 0.222.

For the variant C15G C75U, the self-cleavage was 0.237.

Turning to A8G U37G, the self-cleavage is 0.

As for U12C U79A, the self-cleavage came out at 0.0615.

For C36A C62G, the self-cleavage came to 0.17.

C26U U27C: the self-cleavage turned out to be 1.29.

As to C13U C19U, the self-cleavage is 0.0475.

As to C22U G29U, the self-cleavage turned out to be 0.101.

C36G U65C: the self-cleavage worked out at 0.18.

Take C22G A42U: the self-cleavage is 0.0639.

With C24G C86U, the self-cleavage is 0.17.

Consider G2U U65C, for which the self-cleavage was 0.0391.

Turning to C24U U72A, the self-cleavage was found to be 0.404.

In the case of G1A C66A, the self-cleavage is 0.26.

Turning to U12A C84A, the self-cleavage was 0.506.
